The source of these data is the DeepSol protein solubility set.

A short description of this data set: soluble on expression in E. coli; label from the status in PepcDB or PDB records.
For the sequence “MAHHHHHHMAHGAAQCTLAAPGCVYLTPEQEEQLVDRLYTQSLLQKEATLAELDARYYPVTASQTISQETLQKSVQRQVDVEMERRQQRRKEMDAMAVAKAMGHASGSRAAASKKTVTAEETDVSVRRLYDDALAQKKARKAESERLYAFHPEDLKSAKMSKAALQESVNRMSKPKKTEFAVAEVNKIYGL”, the “soluble on expression in E. coli” value was “soluble”. As for “GIDPFTNEAASAAGVVGGMVDSITQAINQLDEGPMGDPEGSFVDYQTTMVRTAKAIAVTVQEMVTKSNTSPEELGPLANQLTSDYGRLASQAKPAAVAAENEEIGAHIKHRVQELGHGCSALVTKAGALQCSPSDVYTKKELIECARRVSEKVSHVLAALQAGNR”, the “soluble on expression in E. coli” value was “soluble”.

Regarding “MVSEREQLACLVQQWNENRLDLFHLSYPTEDLEVEGVMRFYFQDGGEKVLTKCVRVSSTATTRAVVDALSEKFLPDLKMLSNDTYSLWEVHENGEERKLLDEEKPLVVQLQWHKDDREGRFLLKKDAAPPVSLLNLQEADQKNTRFAKKKDKEPKKKNQKNFVQVNGGREEAQSQDDIYKQVPFNTFTRTISNPEAVMRKRREKKLETKLKEMMFGGSLKVYGGEIVPTRPYVSILAEINENADRILGAALEKYGLEHSKDDFILVEVSNDDDRKSMSDLREIDGRPIPPTECPLFEMTARSGNGENGFDSFLAIKRKPHDYQVPSTSVVAPSSVTLPMSPLTSLPPQIHNLPVLIVMNNDGHLSTHRITLHEGVTEVGSDSQMSNFSQHNIYLDGPDIRGRHAAIAFMEGVVTLTPSTRDAYLEVNGHQLMQTEILRDGDHIRIGADHSFKFSTSSSQANQINSTNISNSNQRHFQQQTFYPEMADSRASTARCAPSDYCSLPQQNDYYPPSMSGSSVSSSRQEDLMMHSNNNILPPYSTKSAQEPLQLPLSIQIGDYNVWDFLAEVMSNRAATSSEMSTFRLSPAYSLYLALRSFHTHNKPYSVQFFSRIESNFKQIAQECSSKDDLIFWLANASEFNHLVERDTELKASRYGKISVEIERIFRRLVAVLQSVIRPAARALLDIHLNDHDATGDVIHLLDTTMRQARICGLNAALTIQLCGHLLHMVNAFVFNSLVSVNLPAAQLNTRLGKCLQYRIESIHRFCERMGVEMAAECHLDRSRQAANLLATQKNDVAALGSTCYKLNSLQVVHILSGFEPDDGEIPCDDDVVDRICRLAEKQADKLTLEDGQRVTLEESDELNLPFLIPQDGYFVEQFRTVPDGLWQYLQQLQHRRLCHTVSLTPAPPAAMTHSMHAMHIGASDAHYHQHQHQQQQNPIVRSVSQTTLTSIPTTQFGDSFGSAVSDTISKVTLRKNGGGIGLSIVAAQGVGDRQMGIYVKKVVEGTPAAHDGRLETGDQLLSVNGHSLIGISQEEFVFQ”, the “soluble on expression in E. coli” value was “not soluble”. Turning to “MGSSHHHHHHSSGLVPRGSHMLEADPLLAQLKQQLHSQTPRAEGVVKATEKGFGFLEVDAQKSYFIPPPQMKKVMHGDRIIAVIHSEKERESAEPEELVEPFLTRFVGKVQGKNDRLAIVPDHPLLKDAIPCRAARGLNHEFKEGDWAVAEMRRHPLKGDRSFYAELTQYITFGDDHFVPWWVTLARHNLEKEAPDGVATEMLDEGLVREDLTALDFVTIDSASTEDMNDALFAKALPDDKLQLIVAIADPTAWIAEGSKLDKAAKIRAFTNYLPGFNIPMLPRELSDDLCSLRANEVRPVLACRMTLSADGTIEDNIEFFAATIESKAKLVYDQVSDWLENTGDWQPESEAIAEQVRLLAQICQRRGEWRHNHALVFKDRPDYRFILGEKGEVLDIVAEPRRIANRIVEEAMIAANICAARVLRDKLGFGIYNVHMGFDPANADALAALLKTHGLHVDAEEVLTLDGFCKLRRELDAQPTGFLDSRIRRFQSFAEISTEPGPHFGLGLEAYATWTSPIRKYGDMINHRLLKAVIKGETATRPQDEITVQMAERRRLNRMAERDVGDWLYARFLKDKAGTDTRFAAEIVDISRGGMRVRLVDNGAIAFIPAPFLHAVRDELVCSQENGTVQIKGETVYKVTDVIDVTIAEVRMETRSIIARPVA”, the “soluble on expression in E. coli” value is “soluble”. Under “MAYELPELPYAYDALEPHIDKETMTIHHTKHHNTYVTNLNKAVEGNTALANKSVEELVADLDSVPENIRTAVRNNGGGHANHKLFWTLLSPNGGGEPTGALAEEINSVFGSFDKFKEQFAAAAAGRFGSGWAWLVVNNGKLEITSTPNQDSPLSEGKTPILGLDVWEHAYYLNYQNRRPDYISAFWNVVNWDEVARLYSERK” stands “soluble”; under “MGSDKIHHHHHHMKVWPVKHSPLLRQPERFIARSELQALIRNVTQNLVNIKDESGQFLLRLDDGRVIDTKGWAGWEWTHGVGLYGIYQYYQQTGDIEMRDIIDRWFADRFAEGATTKNVNTMAPFLTLAYRFEETGRMAYLPWLESWAEWAMHEMPRTEQGGMQHMTLAEENHQQMWDDTLMMTVLPLAKIGKLLNRPQYVEEATYQFLLHVQNLMDRETGLWFHGWNYEGRHNFARARWARGNSWLTMVIPDFLELVDLPEGNAVRRYLITVLDAQIAALAECQDDSGLWHTLLDDPHSYLEASATAGFAYGILKAVRKRYVGQHYAGVAEKAIRGIVQNISPQGELLQTSFGTGMGSDLDFYRQIPLTSMPYGQAMAILCLTEYLRKYF”, “not soluble”; under “MTVWDRPEPPHRPVPLDRERIVAAAVALADEGGLTAVSVRKVAARLDAGPMRLYGFISTKDELFDLMVDAVYAEILPEERAGDWREALRVLAHRTRQAALRHPWLADLLGGRPALGPNGLAVAEATLAALDGLADVDTVMRAVETVSSYFTGAVRREIADLRAERATGLSKPEWQREHGPHLTRMLATGRYPALAKAVHDGTHVDAEESFATGLDWVLDAVAVRLARPPGS”, “not soluble”.

Regarding “MSLDSDPDTLVVHTQLGTTAPGSPTYLAAVDRFREENPGVKIKNLVNGDDLAQVYETSRLARKEADVVMVNLYDKTLAWTDVGATVDVKPYLDDWGLRGRVLPAALADWTDDEGRVRAFPYFATNWPVAYNRALLDRAGVDAIPTTGDQLIAAARKLRAKGIAPVTVGGNDWTGQKLLAQIIQTFLSQDEARHVYSTGDFGVRGARLGIEYFAHLRDAGVFADKAQGLTSDSMTTQFNTEEAAVQSAMSSALAKVPEKVAGHTEVGGWPLADGAAHDGPTVIRAYTLIGFWISPNGVRKIEQVEKFLRFMYRPDVVARFVTESGRDMALRTDAVSTGFPLVGAAQRLGSEVSQVLLPDVYVPPAAAQPLITATSTSFTRGTSPARVRAALESAYRSVEGHHHHHH”, the “soluble on expression in E. coli” value is on record as “soluble”.

With “MQPDNYFILAQKPITEPSASVMGQVKNDVKKEEPKNEEKKPGDENKNPAAVGAEGAGAAEKPQDKSQKPFPEIKMPTESMKKKKNTDNEIDKRKKMKTGFYQEKSDEDDTLEKIESLKVEQSDKTKKSQKKKLTLENGEKKV”, the “soluble on expression in E. coli” value was “not soluble”. Under “MPSCDPGPAPACLPTKTFRSYLPRCHRTYSCVHCRAHLAKHDELISKSFQGSHGRAYLFNSVVNVGCGPAEQRLLLTGLHSVADIFCESCKTTLGWKYEQAFETSQKYKEGKYIIEMSHMVKDNGWD” stands “soluble”. “FRKIAQAYNLDLLVHHANAQLKQLVRRYRLKRGGSMLGLLVMDTEMGDELRSVHSLSGGETFLVSLALALGLASMASSTLRIESLFIDEGFGSLDPESLQLAMDALDGLQAQGRKVGVISHVQEMHERIPVQIRVRRQGNGLSTI”: the “soluble on expression in E. coli” value was “not soluble”. As to “MAKINLTPKKIYEQEFKTSIRGYDKTEVDEFLDDVIKDYTVYIALVKELQEENAKLKAKATSAPASRPAYASATSEPSHATTNIASASNYDILKRISRLEKEVFGKQIVE”, the “soluble on expression in E. coli” value is reported as “not soluble”. For “MKTVPPVHRIALLFNGSKIYDRGIISGIGNYLSSTRVSWDLFLEEDFLCRLKGIERWQGDGIIADFDDPLIGEALAGIRLPVVAVGGSYQDERAYPKGIPYVATDNHALIKAAYEHLIEAGLTRFACFSLPEAQANRWAQEREKAFRHLLQRDGLHAEVYRGLGTSAPLWDSAVEQQITWLQSLPKPIGIIAVTDARARQLLQACLTAGIAVPEQVALIGIDNDPLTRTLTRVPLSSVIQGTETMGRTAARLLHQLLHGMPSSGTHILIPPDAVNVQASSLHQPLGDPYVMQALLFIRQYACQGIKTAQVAAYVGVSRSALESHFRRVRGCSVHDEILRFKLAAAAHGLENTDSAIADIARDCGFRSAQYLHTVFRREFGCTPREYLQGANAALQ”, the “soluble on expression in E. coli” value is “not soluble”.
